Substitutions are numbered along the chain they refer to. Read-outs that look alike come from different tables or passages of the source.
B1: 268A+411Met (protein, UniProt P62694 18-513, looked up, variant R268A R411M)
Exoglucanase 1: QSACTLQSETHPPLTWQKCSSGGTCTQQTGSVVIDANWRWTHATNSSTNCYDGNTWSSTLCPDNETCAKNCCLDGAAYASTYGVTTSGNSLSIGFVTQSAQKNVGARLYLMASDTTYQEFTLLGNEFSFDVDVSQLPCGLNGALYFVSMDADGGVSKYPTNTAGAKYGTGYCDSQCPRDLKFINGQANVEGWEPSSNNANTGIGGHGSCCSEMDIWEANSISEALTPHPCTTVGQEICEGDGCGGTYSDNAYGGTCDPDGCDWNPYRLGNTSFYGPGSSFTLDTTKKLTVVTQFETSGAINRYYVQNGVTFQQPNAELGSYSGNELNDDYCTAEEAEFGGSSFSDKGGLTQFKKATSGGMVLVMSLWDDYYANMLWLDSTYPTNETSSTPGAVMGSCSTSSGVPAQVESQSPNAKVTFSNIKFGPIGSTGNPSGGNPPGGNRGTTTTRRPATTTGSSPGPTQSHYGQCGGIGYSGPTVCASGTTCQVLNPYYSQCL
B2: 268Leu (protein, UniProt P62694 18-513, looked up, variant R268L)
Exoglucanase 1: B1 Exoglucanase 1 with A251L, M394R
B3: 268Cys+411A (protein, UniProt P62694 18-513, looked up, variant R268C R411A)
Exoglucanase 1: B1 Exoglucanase 1 with A251C, M394A
B4: 268Trp+411A (protein, UniProt P62694 18-513, looked up, variant R268W R411A)
Exoglucanase 1: B1 Exoglucanase 1 with A251W, M394A
B5: 268Lys+411A (protein, UniProt P62694 18-513, looked up, variant R268K R411A)
Exoglucanase 1: B1 Exoglucanase 1 with A251K, M394A
B6: 411Leu (protein, UniProt P62694 18-513, looked up, variant R411L)
Exoglucanase 1: B1 Exoglucanase 1 with A251R, M394L
B7: 268His+411A (protein, UniProt P62694 18-513, looked up, variant R268H R411A)
Exoglucanase 1: B1 Exoglucanase 1 with A251H, M394A
B8: 268A+411Leu (protein, UniProt P62694 18-513, looked up, variant R268A R411L)
Exoglucanase 1: B1 Exoglucanase 1 with M394L
B9: 411Val (protein, UniProt P62694 18-513, looked up, variant R411V)
Exoglucanase 1: B1 Exoglucanase 1 with A251R, M394V
B10: 268Phe+411A (protein, UniProt P62694 18-513, looked up, variant R268F R411A)
Exoglucanase 1: B1 Exoglucanase 1 with A251F, M394A
B11: 268Ser+411A (protein, UniProt P62694 18-513, looked up, variant R268S R411A)
Exoglucanase 1: B1 Exoglucanase 1 with A251S, M394A
B12: 268Glu+411A (protein, UniProt P62694 18-513, looked up, variant R268E R411A)
Exoglucanase 1: B1 Exoglucanase 1 with A251E, M394A
B13: 268Gln+411A (protein, UniProt P62694 18-513, looked up, variant R268Q R411A)
Exoglucanase 1: B1 Exoglucanase 1 with A251Q, M394A
B14: 268A+411Val (protein, UniProt P62694 18-513, looked up, variant R268A R411V)
Exoglucanase 1: B1 Exoglucanase 1 with M394V
B15: 268Pro (protein, UniProt P62694 18-513, looked up, variant R268P)
Exoglucanase 1: B1 Exoglucanase 1 with A251P, M394R
B16: 268Phe (protein, UniProt P62694 18-513, looked up, variant R268F)
Exoglucanase 1: B1 Exoglucanase 1 with A251F, M394R
B17: 411Pro (protein, UniProt P62694 18-513, looked up, variant R411P)
Exoglucanase 1: B1 Exoglucanase 1 with A251R, M394P
B18: 268Arg+411A (protein, UniProt P62694 18-513, looked up, variant R411A)
Exoglucanase 1: B1 Exoglucanase 1 with A251R, M394A
B19: 268Ala (protein, UniProt P62694 18-513, looked up, variant R268A)
Exoglucanase 1: B1 Exoglucanase 1 with M394R
B20: 268Val+411A (protein, UniProt P62694 18-513, looked up, variant R268V R411A)
Exoglucanase 1: B1 Exoglucanase 1 with A251V, M394A
B21: 268A+411Ile (protein, UniProt P62694 18-513, looked up, variant R268A R411I)
Exoglucanase 1: B1 Exoglucanase 1 with M394I
B22: 268Pro+411A (protein, UniProt P62694 18-513, looked up, variant R268P R411A)
Exoglucanase 1: B1 Exoglucanase 1 with A251P, M394A

Key:
[1] = 4-MUL assay, specific activity (Example 2); format: biochemical; details: for 268A+411— Measured Specific Activity (SA) / 268A+411— Δ SA* (change in specific activity; ratio of variant: WT): double mutant 268A+411X; for 268— Measured Specific Activity (SA) / 268— Δ SA* (change in specific activity; ratio of variant: WT): 268 single substitution; for 268— +411 A Δ SA* (change in specific activity; ratio of variant: WT) / 268— +411 A Measured Specific Activity (SA): double mutant 268X+411A; for 411— Δ SA* (change in specific activity; ratio of variant: WT) / 411— Measured Specific Activity (SA): 411 single substitution
Method in brief: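 Specific activity derived from 4-MU standard curves and HPLC-quantified enzyme. Initial rates were taken over the first 15 min, with an endpoint read at 1 h (pH 10 carbonate quench), all at ex 365/em 450 nm. Conditions: 0.5 mM 4-MUL, 5 μg/mL enzyme, MES pH 6, 25 mM gluconolactone, cellobiose optional.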

[2] = 4-MUL cellobiose tolerance/inhibition assay, dose-response IC50 (Example 2); format: biochemical; details: for synergy of double mutant (measured vs expected additive IC50) / 268_+411A Synergistic**↑: measured versus expected additive IC50
Method in brief: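 IC50 reflects cellobiose concentration halving activity, fitted by four-parameter dose-response with zero activity fixed at knockout-strain background. Assays used 4-MUL (0.5 mM) with enzyme at 5 μg/mL or less, pH 6 MES, 25 mM gluconolactone blocking BG, cellobiose up to 100 mM; 4-MU fluorescence read.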

[3] = double mutant 268A+411X, averaged IC50 from Tables 8-11, read-out: 268A+411— Measured (merged IC50)
[4] = double mutant 268A+411X, expected IC50 (additive values of single mutations), read-out: 268A+411— Expected IC50
[5] = 268 single substitution, averaged IC50 from Tables 8-11, read-out: 268— Measured (merged IC50)
[6] = double mutant 268X+411A, expected IC50 (additive values of single mutations)
[7] = double mutant 268X+411A, averaged IC50 from Tables 8-11, read-out: 268_+411A Measured (merged IC50)
[8] = 411 single substitution, averaged IC50 from Tables 8-11, read-out: 411— Measured (merged IC50)

Molecule | 268— +411 A Δ SA* (change in specific activity; ratio of variant: WT) [1] | 268 +411A Expected IC50 [2, 6] | 268_+411A Synergistic**↑ ([2]; double mutant 268X+411A) | 268— +411 A Measured Specific Activity (SA) [1] | IC50 [2, 7] | other results
B1 | – | – | – | – | – | 268A+411— Measured Specific Activity (SA) [1]: 1.78 μmol 4 MU/min/mg CBH I; 268A+411— Δ SA* (change in specific activity; ratio of variant: WT) [1]: 2.3; IC50 [2, 3]: 11.7 mM; IC50 [2, 4]: 3.91 mM; synergy of double mutant (measured vs expected additive IC50) ([2]; double mutant 268A+411X): 3.0
B2 | – | – | – | – | – | 268— Measured Specific Activity (SA) [1]: 1.83 μmol 4 MU/min/mg CBH I; 268— Δ SA* (change in specific activity; ratio of variant: WT) [1]: 2.4; IC50 [2, 5]: 0.45 mM
B3 | 0.2 | 1.56 mM | 14.4 | – | – | –
B4 | 1.8 | 1.69 mM | 5.9 | 1.37 μmol 4 MU/min/mg CBH I | 9.97 mM | –
B5 | 0.7 | 1.29 mM | 4.8 | – | 6.14 mM | –
B6 | – | – | – | – | – | 411— Δ SA* (change in specific activity; ratio of variant: WT) [1]: 0.2; IC50 [2, 8]: 6.54 mM
B7 | 1.8 | 1.41 mM | 3.7 | 1.35 μmol 4 MU/min/mg CBH I | 5.27 mM | –
B8 | – | – | – | – | – | 268A+411— Δ SA* (change in specific activity; ratio of variant: WT) [1]: 1.3; IC50 [2, 3]: 22.7 mM; IC50 [2, 4]: 7.12 mM; synergy of double mutant (measured vs expected additive IC50) ([2]; double mutant 268A+411X): 3.2
B9 | – | – | – | – | – | 411— Measured Specific Activity (SA) [1]: 0.65 μmol 4 MU/min/mg CBH I; 411— Δ SA* (change in specific activity; ratio of variant: WT) [1]: 0.9; IC50 [2, 8]: 3.16 mM
B10 | 2.7 | 1.65 mM | 5.9 | 2.07 μmol 4 MU/min/mg CBH I | 9.7 mM | –
B11 | 2.1 | 1.67 mM | 5.7 | 1.59 μmol 4 MU/min/mg CBH I | 9.57 mM | –
B12 | 0.8 | 1.8 mM | 9.3 | 0.58 μmol 4 MU/min/mg CBH I | 16.7 mM | –
B13 | 2.8 | – | – | 2.13 μmol 4 MU/min/mg CBH I | 9.13 mM | –
B14 | – | – | – | – | – | 268A+411— Measured Specific Activity (SA) [1]: 1.78 μmol 4 MU/min/mg CBH I; 268A+411— Δ SA* (change in specific activity; ratio of variant: WT) [1]: 2.3; IC50 [2, 3]: 14.8 mM; IC50 [2, 4]: 3.73 mM; synergy of double mutant (measured vs expected additive IC50) ([2]; double mutant 268A+411X): 4.0
B15 | – | – | – | – | – | 268— Measured Specific Activity (SA) [1]: 3.38 μmol 4 MU/min/mg CBH I; 268— Δ SA* (change in specific activity; ratio of variant: WT) [1]: 4.4; IC50 [2, 5]: 0.52 mM
B16 | – | – | – | – | – | 268— Δ SA* (change in specific activity; ratio of variant: WT) [1]: 0.5; IC50 [2, 5]: 0.48 mM
B17 | – | – | – | – | – | 411— Measured Specific Activity (SA) [1]: 0.70 μmol 4 MU/min/mg CBH I; 411— Δ SA* (change in specific activity; ratio of variant: WT) [1]: 0.9; IC50 [2, 8]: 1.13 mM
B18 | 0.7 | 1.22 mM | 1.0 | 0.53 μmol 4 MU/min/mg CBH I | 1.22 mM | –
B19 | – | – | – | – | – | 268— Measured Specific Activity (SA) [1]: 2.97 μmol 4 MU/min/mg CBH I; 268— Δ SA* (change in specific activity; ratio of variant: WT) [1]: 3.9; IC50 [2, 5]: 0.57 mM
B20 | 1.9 | 1.57 mM | 6.0 | 1.43 μmol 4 MU/min/mg CBH I | 9.49 mM | –
B21 | – | – | – | – | – | 268A+411— Δ SA* (change in specific activity; ratio of variant: WT) [1]: 0.5; IC50 [2, 3]: 32.7 mM
B22 | 2.8 | 1.7 mM | 5.1 | 2.16 μmol 4 MU/min/mg CBH I | 8.57 mM | –

— patent publication US20140287471A1, “VARIANT CBH I POLYPEPTIDES WITH REDUCED PRODUCT INHIBITION” (BP CORPORATION NORTN AMERICA INC., priority 2011, published 2014)
